Assay results: paper PMC7547722, “A versatile soluble siglec scaffold for sensitive and quantitative detection of glycan ligands” (Nature Communications, 2020)
Where “and” joins values, the source holds several entries; their conditions need not be identical. Equal entries are not always repeated. Each block holds one molecule with its values, some of them ahead of it.

Columns and labels:
BT549 = assay: Flow cytometry, pre-complexed Siglec-Fc binding to breast cancer cell line; type: cell-based; details: Strep-Tactin-AF647, replicates
Experimental: (§1) Strep-Tactin-AF647 (0.55 μg/mL, 0.57 pmol), streptavidin (Biolegend), or anti-human igG1 (Biolegend) was added to Siglec supernatant (50 μL) or purified Siglec and allowed to sit at 4 °C for 15 min. After, the pre-complexed solution was added to cells in a 96-well U-bottom plate for 30 min at 4 °C. After, 200 μL of flow buffer (HBSS, 0.1% BSA, 5 mM EDTA) was added and the plate was spun down at 300 rcf for 5 min. The cells were resuspended in 200 μL of flow buffer and processed through the flow cytometer.
(§2) Flow cytometry was performed on a BD LSRFortessa™ X-20 cell analyzer using BD FACSDiva Software Version 8.0.1 and data was processed using FlowJo LLC. Version 9.9.6 and Graphpad Prism 8. The live, single cell populations were gated out with two gates to obtain the median fluorescence intensity (MFI), which indicates binding of the Siglec-Fc-secondary complex to the cell surface. Control cells that were incubated with Strep-Tactin-AF647 (0.55 μg/mL, 0.57 pmol) was used to determine the baseline fluorescence. Number of cells (# cells) plotted indicates percentage of max (% max).

HS578T = assay: as above; type: cell-based; details: Strep-Tactin-AF647, replicates
Experimental: as §1, §2

MCF7 = assay: as above; type: cell-based; details: Strep-Tactin-AF647, replicates
Experimental: as §1, §2

MDA-MB-468 = assay: as above; type: cell-based; details: Strep-Tactin-AF647, replicates
Experimental: as §1, §2

ZR-75-1 = assay: as above; type: cell-based; details: Strep-Tactin-AF647, replicates
Experimental: as §1, §2

T47D = assay: as above; type: cell-based; details: Strep-Tactin-AF647, replicates
Experimental: as §1, §2

MDA-MB-231 = assay: as above; type: cell-based; details: Strep-Tactin-AF647, replicates
Experimental: as §1, §2

[1] = system: B-cells (CD19+), human splenocytes; assay: Siglec-Fc binding to splenocytes, flow cytometry; type: cell-based; details: Suppl Fig 12; three replicate columns
Experimental: (§3) For human splenocytes, the sample was homogenized in media through a 40 µm filter (Corning) under sterile conditions. Samples were centrifuged at 300 rcf for 5 min. The resulting pellet from the spleen sample and whole human blood were treated with RBC lysis buffer (7 min) and centrifuged at 300 rcf and the RBC lysis was repeated twice more until no RBC remained in the pellet. Samples were treated with human Fc-receptor blocking agent (TruStain FX, Biolegend) in flow buffer (HBSS, 0.1% BSA, 5 mM EDTA). For analysis, the following cocktail was used: hSig8 (PerCP/Cy5.5, clone 7C9, Biolegend cat. no. 347108, 1:200), hCD123 (PE/Cy7, clone 6H6, Biolegend cat. no. 306010, 1:200), hCD19 (PE, clone SJ25C1, Biolegend cat. no. 363004, 1:200), hCD3 (FITC, BD Pharmingen cat. no. 555332, 1:50), hCD14 (BV605, clone M5E2, BD Horizon cat. no. 564056, 1:200), hCD15 (BUV395, clone HI98, BD Horizon cat. no. 563872, 1:200), hCD56 (BV510, clone NCAM16.2, BD Horizon cat. no. 563041, 1:200). For human peripheral blood samples, we additionally used hHLA-DR (APC-Cy7, clone L243, Biolegend cat. no. 307618, 1:200). Pre-complexed Siglec-Fc/Strep-Tactin-AF647 (described above) was added to the antibody cocktail, added to cells, and allowed to stain at 4 °C for 45 min. The cells were then centrifuged at 300 rcf for 5 min and resuspended in flow buffer containing 1 µg/mL propidium iodide prior to analysis by flow cytometry.
as §2

[2] = system: T-cells (CD3+), human splenocytes; assay: Siglec-Fc binding to splenocytes, flow cytometry; type: cell-based; details: Suppl Fig 12; three replicate columns
Experimental: as §3, §2

[3] = system: monocytes (CD14+), human splenocytes; assay: Siglec-Fc binding to splenocytes, flow cytometry; type: cell-based; details: Suppl Fig 12; three replicate columns
Experimental: as §3, §2

[4] = system: NK cells (CD56+), human splenocytes; assay: Siglec-Fc binding to splenocytes, flow cytometry; type: cell-based; details: Suppl Fig 12; three replicate columns
Experimental: as §3, §2

[5] = system: neutrophils (CD15+), human splenocytes; assay: Siglec-Fc (CD22-Fc V1/V2, with or without Fc receptor block) binding to splenocytes, flow cytometry; type: cell-based; details: Suppl Fig 12; three replicate columns
Experimental: as §3, §2

K562 cells = assay: Flow cytometry, pre-complexed Siglec-Fc binding; type: cell-based; details: Strep-Tactin-AF647, replicates
Experimental: as §1, §2

HuH7 cells = assay: Flow cytometry, pre-complexed Siglec-Fc binding; type: cell-based; details: Strep-Tactin-AF647, replicates
Experimental: as §1, §2

HEK293T cells = assay: Flow cytometry, pre-complexed Siglec-Fc binding; type: cell-based; details: HEK; Strep-Tactin-AF647; replicates
Experimental: as §1, §2

Jurkat cells = assay: Flow cytometry, pre-complexed Siglec-Fc binding; type: cell-based; details: Strep-Tactin-AF647, replicates
Experimental: as §1, §2

A549 cells = assay: Flow cytometry, pre-complexed Siglec-Fc binding; type: cell-based; details: Strep-Tactin-AF647, replicates
Experimental: as §1, §2

U937 cells = assay: Flow cytometry, Siglec-Fc pre-complexed with Strep-Tactin, streptavidin or anti-human IgG1; type: cell-based; details: U937; Strep-Tactin-AF647; replicates, Fig. 2
Experimental: as §1, §2

cDCs (CD123dim/HLA-DR+) = assay: Siglec ligands on peripheral blood immune cells, flow cytometry; type: cell-based, human; details: cDC; replicate values
Experimental: as §3, §2

T-cells (CD3+) = assay: as above; type: cell-based, human; details: replicate values
Experimental: as §3, §2

NK cells (CD56+) = assay: as above; type: cell-based, human; details: replicate values
Experimental: as §3, §2

B-cells (CD19+) = assay: as above; type: cell-based, human; details: replicate values
Experimental: as §3, §2

pDCs (CD123high/HLA-DR+) = assay: as above; type: cell-based, human; details: pDC; replicate values
Experimental: as §3, §2

neutrophils (CD15+) = assay: as above; type: cell-based, human; details: replicate values
Experimental: as §3, §2

[6] = system: peripheral blood immune cells; assay: Comparison of 2-step and pre-complexed Siglec-Fc binding, flow cytometry (Figure 3e-g); type: cell-based, human; details: Figure 3f; 2-Step; listed as Siglec-7-Fc R124A
basophils (CCR3+) = assay: Siglec ligands on peripheral blood immune cells, flow cytometry; type: cell-based, human; details: replicate values
Experimental: (§4) Siglec supernatant (50 μL) or purified Siglec was incubated with cells in a 96-well U-bottom plate for 30 min at 4 °C. Following the incubation, 200 μL of flow buffer (HBSS, 0.1% BSA, 5 mM EDTA) was added and the plate was spun down at 300 rcf for 5 min. Strep-Tactin-AF647 (0.55 μg/mL, 50 μL, 0.57 pmol), streptavidin (Biolegend), or anti-human IgG1 (Biolegend) was added to the cells and incubated for 30 min at 4 °C. After, 200 μL of flow buffer (HBSS, 0.1% BSA, 5 mM EDTA) was added and the plate was spun down at 300 rcf for 5 min. The cells were resuspended in 200 μL of flow buffer and processed through the flow cytometer.
as §1, §3, §2

eosinophils (Siglec-8+) = assay: as above; type: cell-based, human; details: replicate values
Experimental: as §4, §1, §3, §2

monocytes (CD14+) = assay: as above; type: cell-based, human; details: replicate values
Experimental: as §4, §1, §3, §2

[7] = system: human peripheral blood monocytes; assay: CD33-Fc binding to monocytes treated with Neu-S or Neu-A; type: cell-based; details: Figure 6c; WT (no neuraminidase)
Experimental: as §1
For human splenocytes, the sample was homogenized in media through a 40 µm filter (Corning) under sterile conditions. Samples were centrifuged at 300 rcf for 5 min. The resulting pellet from the spleen sample and whole human blood were treated with RBC lysis buffer (7 min) and centrifuged at 300 rcf and the RBC lysis was repeated twice more until no RBC remained in the pellet. […]
as §2, with “Version 9.9.6 and Graphpad Prism 8.” left out, “Number of cells (# cells) plotted indicates percentage of max (% max).” left out

[8] = system: U937 cells treated with neuraminidase; assay: Pre-complexed Siglec-Fc staining of cells treated with Neu-S or Neu-A; type: cell-based

Binding, Monocytes [3]: 7.43 and 2.68 and 5.18
B1: Sig-7 R124A: Siglec-7-Fc essential arginine mutant (protein, UniProt Q9Y286 19-353, looked up, variant R124A)
extracellular domain: QKSNRKDYSLTMQSSVTVQEGMCVHVRCSFSYPVDSQTDSDPVHGYWFRAGNDISWKAPVATNNPAWAVQEETRDRFHLLGDPQTKNCTLSIRDARMSDAGRYFFAMEKGNIKWNYKYDQLSVNVTALTHRPNILIPGTLESGCFQNLTCSVPWACEQGTPPMISWMGTSVSPLHPSTTRSSVLTLIPQPQHHGTSLTCQVTLPGAGVTTNRTIQLNVSYPPQNLTVTVFQGEGTASTALGNSSSLSVLEGQSLRLVCAVDSNPPARLSWTWRSLTLYPSQPSNPLVLELQVHLGDEGEFTCRAQNSLGSQHVSLNLSLQQEYTGKMRPVSGVLL
modifications: extracellular domain fused to human IgG1 Fc
notes: Siglec-7-Fc essential arginine mutant
binding of pre-complexed Siglec-Fc (MFI) (BT549): 114 and 117 and 118 | binding of pre-complexed Siglec-Fc (MFI) (HS578T): 148 and 144 and 145 | binding of pre-complexed Siglec-Fc (MFI) (MCF7): 121 and 126 and 130 | binding of pre-complexed Siglec-Fc (MFI) (MDA-MB-468): 155 and 154 and 158 | binding of pre-complexed Siglec-Fc (MFI) (ZR-75-1): 229 and 258 and 236 | binding of pre-complexed Siglec-Fc (MFI) (T47D): 116 and 117 and 119 | binding of pre-complexed Siglec-Fc (MFI) (MDA-MB-231): 165 and 175 and 187 | Binding, B-cells [1]: 8.11 and 1.36 and 3.18 | Binding, T-cells [2]: 2.32 and 2.93 and 4.67 | Binding, NK [4]: 1.26 and 1.99 and 1.13 | Binding, Neutrophils [5]: 10.1 and 1.12 and 11.5 | binding of pre-complexed Siglec-Fc (MFI) (K562 cells): 103 and 99.8 and 101 | binding of pre-complexed Siglec-Fc (MFI) (HuH7 cells): 105 | binding of pre-complexed Siglec-Fc (MFI) (HEK293T cells): 85 and 88.7 and 91 | binding of pre-complexed Siglec-Fc (MFI) (Jurkat cells): 90.2 and 95.5 and 99.5 | binding of pre-complexed Siglec-Fc (MFI) (A549 cells): 129 (2×) and 134 | binding of pre-complexed Siglec-Fc (MFI) (U937 cells): 137 and 149 and 150 | Siglec-Fc binding (Figure 3d) (cDCs (CD123dim/HLA-DR+)): 70.6 and -20.5 and 24.4 | Siglec-Fc binding (Figure 3d) (T-cells (CD3+)): 7.7 and 27 and 12.8 | Siglec-Fc binding (Figure 3d) (NK cells (CD56+)): 14.1 and 38.5 and 10.3 | Siglec-Fc binding (Figure 3d) (B-cells (CD19+)): 52.4 and 51.4 and 53.1 | Siglec-Fc binding (Figure 3d) (pDCs (CD123high/HLA-DR+)): 57.8 and 10.3 and 41.1 | Siglec-Fc binding (Figure 3d) (neutrophils (CD15+)): 46.2 and 51.8 and 78.1 | Siglec-7-Fc Binding [6]: 9.54 and 11.2 | Siglec-Fc binding (Figure 3d) (basophils (CCR3+)): 41.1 and 57.8 and 2.57 | Siglec-Fc binding (Figure 3d) (eosinophils (Siglec-8+)): -1.28 and 37.2 and 6.04 | Siglec-Fc binding (Figure 3d) (monocytes (CD14+)): 56.5 and 99 and 6.42

CD33-Fc Binding [7]: 42.3 and 56.8 and 61
B2: CD33-Fc R119A (protein, UniProt P20138 18-259, looked up, variant R119A)
extracellular domain: DPNFWLQVQESVTVQEGLCVLVPCTFFHPIPYYDKNSPVHGYWFREGAIISRDSPVATNKLDQEVQEETQGRFRLLGDPSRNNCSLSIVDARRRDNGSYFFAMERGSTKYSYKSPQLSVHVTDLTHRPKILIPGTLEPGHSKNLTCSVSWACEQGTPPIFSWLSAAPTSLGPRTTHSSVLIITPRPQDHGTNLTCQVKFAGAGVTTERTIQLNVTYVPQNPTTGIFPGDGSGKQETRAGVVH
modifications: extracellular domain fused to human IgG1 Fc
CD33-Fc Binding ([8]; Figure 6a, +Neu-A): 106 and 114 | CD33-Fc Binding ([8]; Figure 6a, +Neu-S): 92.4 and 95.2 | CD33-Fc Binding ([8]; Figure 6a, WT cells (no neuraminidase)): 77.3 and 79 | CD33-Fc Binding ([8]; Figure 6b, +Neu-A): 74 and 74.9 | CD33-Fc Binding ([8]; Figure 6b, +Neu-S): 73 and 72.1 and 68.7 | CD33-Fc Binding ([8]; Figure 6b, WT cells (no neuraminidase)): 77.3 and 79
